In one data set the target is CASV L-Cterm (California Academy of Sciences virus …, UniProt J7HBG8 1721-2046). Nature of the data set: EMSA; 5 mM MgCl2; 5 pmol protein, 0.4 pmol RNA. To be noted: protein: recombinant; tags: N-terminal His-tag (pOPINF), removed by 3C protease; chain copies: 2; label: 32P in cap (alpha-32P-GTP); single strand.
Another data set has as its target CASV L-Cterm domain 2 (California Academy of Sciences virus …, UniProt J7HBG8 1794-1894). Nature of the data set: EMSA; 5 mM MgCl2; 5 pmol protein, 0.4 pmol RNA. The note with it: protein: recombinant; tags: N-terminal His-tag, removed by 3C protease; chain copies: 2; label: 32P in cap (alpha-32P-GTP); single strand. A general note: Mobility shift assays separate free from complexed probe on a gel.

For the molecule AAAAAAAAAAAAAAAAAAAAAAAAAAAAAAAAAAAAAAAA (ssRNA, 5' cap added with capping enzymes (Cellscript)) [capped polyA 40mer RNA], the binding result with CASV L-Cterm and with CASV L-Cterm domain 2 was “no binding” in each case.

Values taken from paper PMC5444859.
